According to PMC6733756:
Positions count from the first letter of the chain named. Numbers in names are those of the source. Where two headings read alike, the source gives them in different places. One block for each molecule: values may come before it.

Assays:
human XCR1 (human) [1] = biological target: human XCR1 (human) (UniProt P46094); experiment: radioligand binding
human XCR1 (human) [2] = biological target: human XCR1 (human) (UniProt P46094)
human XCR1 (human) [3] = biological target: human XCR1 (human) (UniProt P46094); remark: listed apart in the source
human XCR1 (human) [4] = biological target: human XCR1 (human) (UniProt P46094); experiment: radioligand binding; remark: listed apart in the source

fold decrease in affinity against XCL1 CC3 (human XCR1 (human) [1]): > 100 fold
Molecule: XCL1 ΔVal^1 (from UniProt P47992 22-114) (ligand)

calcium flux in XCR1-expressing HEK293 cells, EC50 (human XCR1 (human) [2]): > 268 nM
fold decrease in affinity against XCL1 CC3 (human XCR1 (human) [1]): > 100 fold
Molecule: XCL1 +Gly^N-term (from UniProt P47992 22-114) (ligand)

^3H-IP3 accumulation in COS-7 cells transfected with XCR1 and Gqi4myr, EC50 (human XCR1 (human) [3]): 14.1 nM
EC50 (human XCR1 (human) [1]): 1 nM
B1: XCL1 CC3 (ligand)
chain: VGSEVSDKRTCVSLTTQRLPCSRIKTYTITEGSLRAVIFITKRGLKVCADPQATWVRDCVRSMDRKSNTRNNMIQTKPTGTQQSTNTAVTLTG

calcium flux in XCR1-expressing HEK293 cells, EC50 (human XCR1 (human) [2]): > 268 nM
EC50 (human XCR1 (human) [1]): 5.2 nM
EC50 (human XCR1 (human) [4]): < 1 nM
B4: XCL1 CC3 K8A (ligand)
chain: B1 chain with K8A

fold decrease in affinity against XCL1 CC3 (human XCR1 (human) [1]): > 100 fold
B8: XCL1 CC3 E4A (ligand)
chain: B1 chain with E4A

calcium flux in XCR1-expressing HEK293 cells, EC50 (human XCR1 (human) [2]): > 268 nM
EC50 (human XCR1 (human) [4]): < 1 nM
B9: XCL1 CC3 D7A (ligand)
chain: B1 chain with D7A

calcium flux in XCR1-expressing HEK293 cells, EC50 (human XCR1 (human) [2]): > 268 nM
fold decrease in affinity against XCL1 CC3 (human XCR1 (human) [1]): > 100 fold
B10: XCL1 CC3 G2A (ligand)
chain: B1 chain with G2A

Continued, molecule first:

B2: XCL1 WT (ligand)
chain: B1 chain with C21V, C59V
^3H-IP3 accumulation in COS-7 cells transfected with XCR1 and Gqi4myr, EC50 (human XCR1 (human) [3]): 17.6 nM
EC50 (human XCR1 (human) [1]): 7.7 nM

B3: XCL1 CC3 S3A (ligand)
chain: B1 chain with S3A
calcium flux in XCR1-expressing HEK293 cells, EC50 (human XCR1 (human) [2]): > 268 nM

B5: XCL1 CC3 T10A (ligand)
chain: B1 chain with T10A
EC50 (human XCR1 (human) [4]): < 1 nM

B6: XCL1 CC3 V5A (ligand)
chain: B1 chain with V5A
EC50 (human XCR1 (human) [1]): 8 nM

B7: XCL1 CC3 S6A (ligand)
chain: B1 chain with S6A
EC50 (human XCR1 (human) [1]): < 1 nM

B11: XCL1 CC3 V1A (ligand)
chain: B1 chain with V1A
calcium flux in XCR1-expressing HEK293 cells, EC50 (human XCR1 (human) [2]): > 268 nM

B12: XCL1 CC3 R9A (ligand)
chain: B1 chain with R9A
EC50 (human XCR1 (human) [1]): < 1 nM
